According to US20220251236A1 (Boehringer Ingelheim, published 2022):

Key:
Human DLL3-His = target: T1, Human DLL3-His (human, UniProt Q9NYJ7 27-492); test: SPR (ProteOn XPR36), bispecific captured on protein A/G, hu DLL3 as analyte, Example 4B
T1 construct: also called huDLL3-His; hu DLL3
T1 sequence: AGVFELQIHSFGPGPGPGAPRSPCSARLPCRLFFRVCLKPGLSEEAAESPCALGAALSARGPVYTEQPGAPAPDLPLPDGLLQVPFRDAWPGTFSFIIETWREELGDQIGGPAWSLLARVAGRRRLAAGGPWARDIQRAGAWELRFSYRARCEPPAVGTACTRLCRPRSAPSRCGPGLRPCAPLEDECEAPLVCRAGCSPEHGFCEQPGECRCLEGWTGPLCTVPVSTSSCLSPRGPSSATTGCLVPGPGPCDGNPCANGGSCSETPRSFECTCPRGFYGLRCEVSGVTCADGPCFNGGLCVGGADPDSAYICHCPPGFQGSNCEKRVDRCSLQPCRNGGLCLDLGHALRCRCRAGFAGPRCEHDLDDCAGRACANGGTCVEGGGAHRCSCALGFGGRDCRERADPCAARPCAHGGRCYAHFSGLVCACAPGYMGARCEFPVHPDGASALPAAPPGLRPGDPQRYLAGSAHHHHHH
In short: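 Bispecific constructs captured on protein A/G for 200 s at 30 μl/min, baseline stabilized with PBS-T-EDTA. Human DLL3 analyte injected 300 s at 30 μl/min; dissociation followed for 1800 s.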

EGF1+2 = target: T2, EGF1+2; test: flow cytometry on HEK293 cells expressing the DLL3 subdomain construct, PE anti-human secondary, control: secondary antibody only
T2 construct: also called Hu DLL3 EGF1+2 on HEK293 cells
T2 membrane-anchored DLL3 subdomain construct: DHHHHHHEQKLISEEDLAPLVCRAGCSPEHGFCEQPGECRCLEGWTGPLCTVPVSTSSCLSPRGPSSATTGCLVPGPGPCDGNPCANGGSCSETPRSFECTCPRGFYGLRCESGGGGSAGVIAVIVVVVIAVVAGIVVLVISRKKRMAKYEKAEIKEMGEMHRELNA
In short: (§1)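 Binders tested on HEK293 cells displaying the DLL3 subdomain construct; bound molecules detected by flow cytometry using PE-conjugated anti-human secondary antibody. Negative control: cells with secondary antibody only.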

EGF2+3 = target: T3, EGF2+3; test: as above
T3 construct: also called Hu DLL3 EGF2+3 on HEK293 cells
T3 membrane-anchored DLL3 subdomain construct: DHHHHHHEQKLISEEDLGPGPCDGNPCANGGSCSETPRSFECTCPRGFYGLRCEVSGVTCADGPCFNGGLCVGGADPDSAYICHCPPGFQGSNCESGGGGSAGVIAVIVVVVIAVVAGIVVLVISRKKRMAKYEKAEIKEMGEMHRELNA
In short: as §1

EGF3+4 = target: T4, EGF3+4; test: as above
T4 construct: also called Hu DLL3 EGF3+4 on HEK293 cells
T4 membrane-anchored DLL3 subdomain construct: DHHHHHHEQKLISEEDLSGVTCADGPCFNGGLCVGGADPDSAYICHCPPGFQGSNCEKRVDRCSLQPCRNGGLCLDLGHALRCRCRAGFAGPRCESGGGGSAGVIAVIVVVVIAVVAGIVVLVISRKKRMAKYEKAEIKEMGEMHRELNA
In short: as §1

EGF5+6 = target: T5, EGF5+6; test: as above
T5 construct: also called Hu DLL3 EGF5+6 on HEK293 cells
T5 membrane-anchored DLL3 subdomain construct: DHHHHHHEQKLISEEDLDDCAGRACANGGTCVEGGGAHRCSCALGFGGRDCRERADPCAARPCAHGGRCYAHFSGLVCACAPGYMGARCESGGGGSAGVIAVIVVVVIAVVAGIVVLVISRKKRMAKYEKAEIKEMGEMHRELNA
In short: as §1

[1] = target: T6, EGF6+MEMBRANE PROXIMAL PEPTIDE; test: flow cytometry on HEK293 cells expressing the DLL3 subdomain construct, 1.6 nM binder, PE anti-human secondary, control: secondary antibody only
T6 construct: also called Hu DLL3 EGF6+membrane proximal peptide on HEK293 cells
T6 membrane-anchored DLL3 subdomain construct: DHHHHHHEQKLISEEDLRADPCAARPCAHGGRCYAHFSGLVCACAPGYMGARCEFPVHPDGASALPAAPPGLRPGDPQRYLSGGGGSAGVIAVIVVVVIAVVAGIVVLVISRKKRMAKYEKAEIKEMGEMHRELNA
Protocol: DLL3/CD3 binding proteins were produced by transient transfection of CHO-E cells with the pTT5 vectors carrying the chain-encoding genes, as described in Example 2. […] Bound molecules were detected with PE-conjugated anti-human secondary antibody (Sigma-Aldrich, #P8047). As negative control, cells were incubated with secondary antibody only.
The samples were measured by flow-cytometry. […] The sequences of the epitope domains are listed in Example 5, Table 3.

B1: DLL3#3/CD3#1 (bispecific antibody, human IgG1, kappa, lambda, L234A L235A)
chain 1: DIQMTQSPSAMSASVGDRVTITCRASQGISNYLVWFQQKPGKAPKRLIYAVSSLYSGVPSRFSGSGSGTEFTLTISSLQPEDFATYYCLQHDSYPYTFGQGTKLEIKRTVAAPSVFIFPPSDEQLKSGTASVVCLLNNFYPREAKVQWKVDNALQSGNSQESVTEQDSKDSTYSLSSTLTLSKADYEKHKVYACEVTHQGLSSPVTKSFNRGECGGGGSEGKSSGSGSESKSTEGKSSGSGSESKSTGGGGSQVQLVQSGAEVKKPGASVKVSCKASGYTFTSYYVHWVRQAPGQGLEWMVIINPGGGTTSYAQKFLGRVTMTRDTSTNTVYMELKSLRSEDTAVYYCARGEAVTGNYFYYGMDVWGQGTTVTVSSASTKGPSVFPLAPSSKSTSGGTAALGCLVKDYFPEPVTVSWNSGALTSGVHTFPAVLQSSGLYSLSSVVTVPSSSLGTQTYICNVNHKPSNTKVDKRVEPKSCDKTHTCPPCPAPEAAGGPSVFLFPPKPKDTLMISRTPEVTCVVVDVSHEDPEVKFNWYVDGVEVHNAKTKPREEQYNSTYRVVSVLTVLHQDWLNGKEYKCKVSNKALPAPIEKTISKAKGQPREPQVYTLPPSREEMTKNQVSLWCLVKGFYPSDIAVEWESNGQPENNYKTTPPVLDSDGSFFLYSKLTVDKSRWQQGNVFSCSVMHEALHNHYTQKSLSLSPG
chain 2: EAVVTQEPSLTVSPGGTVTLTCRSSTGAVTTSNYANWVQEKPGQLPRGLIGGTNKRAPWVPARFSGSLLGGKAALTLSGAQPEDEAEYFCALWYSNLWVFGGGTKLTVLGQPKAAPSVTLFPPSSEELQANKATLVCLISDFYPGAVKVAWKADGSPVNTGVETTTPSKQSNNKYAASSYLSLTPEQWKSHRSYSCQVTHEGSTVEKTVAPAECSGGGGSEGKSSGSGSESKSTEGKSSGSGSESKSTGGGGSEVQLVESGGGLVQPGGSLKLSCAASGFTFNTYAMNWVRQAPGKGLEWVARIRSKYNNYATYYADSVKDRFTISRDDSKNTAYLQMNNLKTEDTAVYYCVRHGNFGNSYVSWFAYWGQGTLVTVSAASTKGPSVFPLAPSSKSTSGGTAALGCLVKDYFPEPVTVSWNSGALTSGVHTFPAVLQSSGLYSLSSVVTVPSSSLGTQTYICNVNHKPSNTKVDKRVEPKSCDKTHTCPPCPAPEAAGGPSVFLFPPKPKDTLMISRTPEVTCVVVDVSHEDPEVKFNWYVDGVEVHNAKTKPREEQYNSTYRVVSVLTVLHQDWLNGKEYKCKVSNKALPAPIEKTISKAKGQPREPQVYTLPPSREEMTKNQVSLSCAVKGFYPSDIAVEWESNGQPENNYKTTPPVLDSDGSFFLVSKLTVDKSRWQQGNVFSCSVMHEALHNRFTQKSLSLSPG
notes: Heterodimer of one DLL3 chain and one CD3 chain (scFab-Fc, knob-in-hole)
In the case of B1, the Kd (Human DLL3-His) is reported as 0.075 nM, the binding result (EGF1+2) is reported as “no binding (tested: 1.6 nM)” and the binding result (EGF2+3) is reported as “no binding (tested: 1.6 nM)”. B1: no binding (tested: 1.6 nM) (EGF3+4); no binding (tested: 1.6 nM) (EGF5+6); binds [1].

B2: DLL3#3/CD3#2 (bispecific antibody, human IgG1, kappa, lambda, L234A L235A)
chain 1: DIQMTQSPSAMSASVGDRVTITCRASQGISNYLVWFQQKPGKAPKRLIYAVSSLYSGVPSRFSGSGSGTEFTLTISSLQPEDFATYYCLQHDSYPYTFGQGTKLEIKRTVAAPSVFIFPPSDEQLKSGTASVVCLLNNFYPREAKVQWKVDNALQSGNSQESVTEQDSKDSTYSLSSTLTLSKADYEKHKVYACEVTHQGLSSPVTKSFNRGECGGGGSEGKSSGSGSESKSTEGKSSGSGSESKSTGGGGSQVQLVQSGAEVKKPGASVKVSCKASGYTFTSYYVHWVRQAPGQGLEWMVIINPGGGTTSYAQKFLGRVTMTRDTSTNTVYMELKSLRSEDTAVYYCARGEAVTGNYFYYGMDVWGQGTTVTVSSASTKGPSVFPLAPSSKSTSGGTAALGCLVKDYFPEPVTVSWNSGALTSGVHTFPAVLQSSGLYSLSSVVTVPSSSLGTQTYICNVNHKPSNTKVDKRVEPKSCDKTHTCPPCPAPEAAGGPSVFLFPPKPKDTLMISRTPEVTCVVVDVSHEDPEVKFNWYVDGVEVHNAKTKPREEQYNSTYRVVSVLTVLHQDWLNGKEYKCKVSNKALPAPIEKTISKAKGQPREPQVYTLPPSREEMTKNQVSLWCLVKGFYPSDIAVEWESNGQPENNYKTTPPVLDSDGSFFLYSKLTVDKSRWQQGNVFSCSVMHEALHNHYTQKSLSLSPG
chain 2: EAVVTQEPSLTVSPGGTVTLTCRSSTGAVTTSNYANWVQEKPGQLPRGLIGGTNKRAPWVPARFSGSLLGGKAALTLSGAQPEDEAEYFCALWYSNLWVFGGGTKLTVLGQPKAAPSVTLFPPSSEELQANKATLVCLISDFYPGAVKVAWKADGSPVNTGVETTTPSKQSNNKYAASSYLSLTPEQWKSHRSYSCQVTHEGSTVEKTVAPAECSGGGGSEGKSSGSGSESKSTEGKSSGSGSESKSTGGGGSEVQLVESGGGLVQPGGSLKLSCAASGFTFNTYAMNWVRQAPGKGLEWVARIRSKYINYATYYADSVKDRFTISRDDSKNTAYLQMNNLKTEDTAVYYCVRHGNFGNSYVSWFAYWGQGTLVTVSAASTKGPSVFPLAPSSKSTSGGTAALGCLVKDYFPEPVTVSWNSGALTSGVHTFPAVLQSSGLYSLSSVVTVPSSSLGTQTYICNVNHKPSNTKVDKRVEPKSCDKTHTCPPCPAPEAAGGPSVFLFPPKPKDTLMISRTPEVTCVVVDVSHEDPEVKFNWYVDGVEVHNAKTKPREEQYNSTYRVVSVLTVLHQDWLNGKEYKCKVSNKALPAPIEKTISKAKGQPREPQVYTLPPSREEMTKNQVSLSCAVKGFYPSDIAVEWESNGQPENNYKTTPPVLDSDGSFFLVSKLTVDKSRWQQGNVFSCSVMHEALHNRFTQKSLSLSPG
notes: as for B1
In the case of B2, the Kd (Human DLL3-His) is reported as 0.12 nM, the binding result (EGF1+2) is reported as “no binding (tested: 1.6 nM)” and the binding result (EGF2+3) is reported as “no binding (tested: 1.6 nM)”. B2: no binding (tested: 1.6 nM) (EGF3+4); no binding (tested: 1.6 nM) (EGF5+6); binds [1].
